The text below walks through data of US20130315910A1 (Xencor, published 2013).

The target of assay [1] is T1, human FcγRIIb receptor protein (R&D Systems) (human, UniProt P31994 46-217).
T1 construct: Bought protein injected over captured antibody in Biacore; also called CD32b
T1 sequence (looked up): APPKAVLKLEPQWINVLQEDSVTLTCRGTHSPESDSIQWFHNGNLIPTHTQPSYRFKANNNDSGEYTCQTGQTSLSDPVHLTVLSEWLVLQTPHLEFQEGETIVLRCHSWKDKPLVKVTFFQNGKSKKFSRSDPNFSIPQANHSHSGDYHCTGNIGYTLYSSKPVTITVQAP
As to the kind of experiment: SPR. A general note: In SPR one partner is held on a chip, and binding of the other changes the refractive index at the surface.

The target of assay [2] is T2, human FcγRIIa (131R), His- and GST-tagged (human, UniProt P12318 34-217).
T2 construct: Expressed in HEK293T cells, purified by nickel chromatography; also called R131 FcγRIIa; not shown: 6xHis and GST tags of the pTT5 vector
T2 sequence (looked up): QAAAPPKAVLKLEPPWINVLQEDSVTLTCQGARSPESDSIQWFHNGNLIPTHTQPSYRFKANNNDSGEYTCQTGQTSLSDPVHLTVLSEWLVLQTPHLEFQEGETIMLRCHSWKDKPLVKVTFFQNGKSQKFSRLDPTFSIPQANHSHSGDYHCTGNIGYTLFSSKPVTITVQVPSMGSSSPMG
As to the kind of experiment: SPR.

Assay [3] concerns the target T3, human FcγRI receptor protein (R&D Systems) (human, UniProt P12314 16-288).
T3 construct: also called soluble FcγRI; solFcγRI
In words: SPR.

In assay [4] the target is T4, human FcγRIIIa (158V), His- and GST-tagged (human, UniProt P08637 17-208).
T4 construct: also called V158 FcγRIIIa; VIIIa; not shown: 6xHis and GST tags of the pTT5 vector
T4 sequence (P08637 17-208 F176V): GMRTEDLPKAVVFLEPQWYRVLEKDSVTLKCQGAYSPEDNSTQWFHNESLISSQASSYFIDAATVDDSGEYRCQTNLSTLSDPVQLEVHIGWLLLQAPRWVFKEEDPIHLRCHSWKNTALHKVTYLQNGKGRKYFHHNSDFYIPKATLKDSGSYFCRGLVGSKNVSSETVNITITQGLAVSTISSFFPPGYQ
As to the kind of experiment: SPR.

The target of assay [5] is T5, human FcγRIIa (131H), His- and GST-tagged (human, UniProt P12318 34-217).
T5 construct: also called H131 FcγRIIa; HIIa; not shown: 6xHis and GST tags of the pTT5 vector
T5 sequence (looked up): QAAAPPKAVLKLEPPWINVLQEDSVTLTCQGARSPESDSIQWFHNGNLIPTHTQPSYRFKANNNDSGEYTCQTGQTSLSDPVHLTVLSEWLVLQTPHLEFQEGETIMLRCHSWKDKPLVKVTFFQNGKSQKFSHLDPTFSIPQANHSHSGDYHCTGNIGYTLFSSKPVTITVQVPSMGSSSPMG
In words: SPR.

In assay [6] the target is T6, mFcγRIIb (Mus musculus, UniProt P08101).
T6 construct: extracellular region, C-terminal His- and GST-tag; also called mouse FcγRII
T6 sequence (receptor extracellular region, looked up): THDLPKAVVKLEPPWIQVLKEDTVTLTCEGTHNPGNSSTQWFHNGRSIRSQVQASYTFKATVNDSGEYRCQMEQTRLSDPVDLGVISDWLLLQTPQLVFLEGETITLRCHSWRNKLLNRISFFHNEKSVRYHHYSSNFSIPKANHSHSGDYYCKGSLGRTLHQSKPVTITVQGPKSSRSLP
In words: SPR.

A further assay concerns the target T7, cynoFcγRIIIa (Macaca fascicularis, UniProt Q8SPW2).
T7 construct: extracellular region, C-terminal His- and GST-tag; also called cynomolgus monkey FcγRIIIa
As to the kind of experiment: SPR.

In the next assay the target is T8, mFcγRIV.
T8 construct: also called mouse FcγRIV; not shown: C-terminal His and GST tags (named only on our card)
T8 chain: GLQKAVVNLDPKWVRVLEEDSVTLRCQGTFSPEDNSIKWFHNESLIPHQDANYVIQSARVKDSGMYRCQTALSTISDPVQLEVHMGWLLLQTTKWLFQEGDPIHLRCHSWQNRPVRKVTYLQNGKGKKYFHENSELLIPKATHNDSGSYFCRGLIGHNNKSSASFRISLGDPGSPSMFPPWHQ
In words: SPR.

In assay [7] the target is T9, cynoFcγRIIb (Macaca fascicularis, UniProt A0A140HDP4).
T9 construct: extracellular region, C-terminal His- and GST-tag; also called cynomolgus monkey FcγRIIb
T9 sequence (receptor extracellular region): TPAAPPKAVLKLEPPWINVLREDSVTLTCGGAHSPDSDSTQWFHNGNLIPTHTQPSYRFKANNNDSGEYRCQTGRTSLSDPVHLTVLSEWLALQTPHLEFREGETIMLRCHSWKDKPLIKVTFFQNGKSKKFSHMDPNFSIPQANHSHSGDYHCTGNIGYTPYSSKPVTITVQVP
In words: SPR.

The target of assay [8] is T10, human FcγRIIb on cells (transfected HEK293T cells; primary human B cells) (human, UniProt P31994 43-310).
T10 construct: whole, on cells; also called CD32b
T10 sequence (looked up): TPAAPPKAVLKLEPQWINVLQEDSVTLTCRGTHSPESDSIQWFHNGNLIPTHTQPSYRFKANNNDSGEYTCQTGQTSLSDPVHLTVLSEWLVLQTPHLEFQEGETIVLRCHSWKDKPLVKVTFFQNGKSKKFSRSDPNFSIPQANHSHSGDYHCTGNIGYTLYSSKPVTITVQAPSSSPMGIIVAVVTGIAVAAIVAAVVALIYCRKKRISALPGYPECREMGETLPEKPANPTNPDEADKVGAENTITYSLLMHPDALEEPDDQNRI
As to the kind of experiment: flow cytometry on FcγRIIb-transfected 293T cells [middle left panel]. As for the experimental part:
In order to validate the Biacore data and evaluate receptor binding of the variants on the cell surface, binding of select antibodies to cells expressing FcγRIIb was measured. […] HEK293T cells in DMEM with 10% FBS were transfected with human FcγRIIb cDNA in pCMV6 expression vector (Origene Technologies, Rockville, Md.), cultured for 3 days, harvested, washed twice in PBS, resuspended in PBS with 0.1% BSA (PBS/BSA), and aliquoted at 2×10^5 cells per well into 96-well microtiter plates. Fc variant antibodies were serially diluted in PBS/BSA then added to the cells and incubated with mixing for 1 h at room temperature. After extensive washing with PBS/BSA, phycoerythrin (PE)-labeled anti-human-Fab-specific goat F(ab′)2 fragment was added for detection. Cells were incubated for 30 min at room temperature, washed, and resuspended in PBS/BSA. Binding was evaluated using a FACSCanto II flow cytometer (BD Biosciences, San Jose, Calif.), and the mean fluorescence intensity (MFI) was plotted as a function of antibody concentration using Graph Pad Prism software (GraphPad Software, San Diego, Calif.) from which half-maximal binding (EC50) values were determined by sigmoidal dose response modeling.

Assay [9] has as its target T6, mFcγRIIb. As to the kind of experiment: SPR, Kd. Here is the method:
(§1) Variants were screened for receptor affinity using Biacore™ technology, also referred to as Biacore herein, a surface plasmon resonance (SPR) based technology for studying biomolecular interactions in real time. SPR measurements were performed using a Biacore 3000 instrument (Biacore, Piscataway, N.J.). A protein A/G (Pierce Biotechnology) CM5 biosensor chip (Biacore) was generated using a standard primary amine coupling protocol. All measurements were performed using HBS-EP buffer (10 mM HEPES pH 7.4, 0.15 M NaCl, 3 mM EDTA, 0.005% vol/vol surfactant P20, Biacore). Antibodies at 20 nM or 50 nM in HBS-EP buffer were immobilized on the protein A/G surface and FcγRs were injected. After each cycle, the surface was regenerated by injecting glycine buffer (10 mM, pH 1.5). Data were processed by zeroing time and response before the injection of FcγR and by subtracting appropriate nonspecific signals (response of reference channel and injection of running buffer). Kinetic analyses were performed by global fitting of binding data with a 1:1 Langmuir binding model using BIAevaluation software (Biacore).
(§2) Variant antibodies were tested for their affinity to mouse or cynologous monkey FcγRs using Biacore SPR as described above. Specifically, antibodies were first immobilized on a protein A/G chip to high density, and then followed by injections of the extracellular domain of the mouse or cynologous monkey FcγR of interest. Both association and dissociation phases were tracked in real time using the Biacore technology.

Assay [10] has as its target T9, cynoFcγRIIb. In words: SPR, Kd. Here is the method:
as §1, §2

What is called Kd is the constant that tells how readily two partners part at equilibrium. The low end stands for tighter binding, the high end for weaker binding. In general, EC50 (read off the curve) refers to the concentration that produces a half-maximal response.
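For Fold vs WT IgG1 (off-rate) in this document: fold improvement over WT IgG1 so higher means slower dissociation than WT.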

T3 sequence (P12314 16-288 limits assumed): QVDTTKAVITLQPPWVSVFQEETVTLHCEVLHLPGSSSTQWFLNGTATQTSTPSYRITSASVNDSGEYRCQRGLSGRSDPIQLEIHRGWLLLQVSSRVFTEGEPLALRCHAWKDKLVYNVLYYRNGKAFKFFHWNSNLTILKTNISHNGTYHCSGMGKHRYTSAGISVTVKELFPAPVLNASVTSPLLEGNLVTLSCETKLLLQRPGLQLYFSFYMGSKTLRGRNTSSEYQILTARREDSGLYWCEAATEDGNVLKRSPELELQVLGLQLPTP
T7 sequence (Q8SPW2 17-208): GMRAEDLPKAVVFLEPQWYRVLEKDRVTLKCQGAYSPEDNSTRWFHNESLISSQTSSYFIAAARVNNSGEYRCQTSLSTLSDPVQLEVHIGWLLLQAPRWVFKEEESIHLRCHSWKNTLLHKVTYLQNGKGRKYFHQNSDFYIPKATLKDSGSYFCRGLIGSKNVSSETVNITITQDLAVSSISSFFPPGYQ

B1: S267E/A327E (antibody, human IgG1, kappa)
heavy: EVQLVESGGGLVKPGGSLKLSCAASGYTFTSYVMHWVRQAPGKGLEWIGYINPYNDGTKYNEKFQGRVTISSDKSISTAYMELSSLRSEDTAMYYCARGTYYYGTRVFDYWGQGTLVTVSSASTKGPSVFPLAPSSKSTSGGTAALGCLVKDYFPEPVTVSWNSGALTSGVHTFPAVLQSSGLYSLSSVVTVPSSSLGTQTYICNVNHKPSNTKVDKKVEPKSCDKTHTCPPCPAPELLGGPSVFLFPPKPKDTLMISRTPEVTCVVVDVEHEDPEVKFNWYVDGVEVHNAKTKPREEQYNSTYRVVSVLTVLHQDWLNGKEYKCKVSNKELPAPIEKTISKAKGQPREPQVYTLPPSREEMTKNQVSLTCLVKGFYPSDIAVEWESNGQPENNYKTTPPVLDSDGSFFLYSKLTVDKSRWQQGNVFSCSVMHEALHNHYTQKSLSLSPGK
light: DIVMTQSPATLSLSPGERATLSCRSSKSLQNVNGNTYLYWFQQKPGQSPQLLIYRMSNLNSGVPDRFSGSGSGTEFTLTISSLEPEDFAVYYCMQHLEYPITFGAGTKLEIKRTVAAPSVFIFPPSDEQLKSGTASVVCLLNNFYPREAKVQWKVDNALQSGNSQESVTEQDSKDSTYSLSSTLTLSKADYEKHKVYACEVTHQGLSSPVTKSFNRGEC
notes: HuAM4G7 anti-CD19 IgG1 (m1) with these Fc substitutions, EU index; copies: 2 + 2
As for B1, the “Fold vs WT IgG1” value turned out to be 30.9 fold in assay [1]; 29.3 fold in [2]; 2.3 fold in assay [3]; 0.00894 fold in assay [4]; 2.66 fold in assay [5]. For the same molecule, the Kd in [1] turned out to be 47.5 nM; in assay [2] it was 29.3 nM; in assay [3] it was 0.143 nM; in assay [4] it was 21400 nM; in assay [5] it was 243 nM. In addition, the “Fold vs WT IgG1 (off-rate)” value in the assay with mFcγRIIb [6] is 2.8 fold; with cynoFcγRIIIa, 0.465 fold; with mFcγRIV it was 1.04 fold; with cynoFcγRIIb [7] it was 1.03 fold. For the same molecule, the “EC50 (read off the curve)” value in assay [8] is about 10 ng/mL.

B2: G236S/G237A (antibody, human IgG1, kappa)
heavy: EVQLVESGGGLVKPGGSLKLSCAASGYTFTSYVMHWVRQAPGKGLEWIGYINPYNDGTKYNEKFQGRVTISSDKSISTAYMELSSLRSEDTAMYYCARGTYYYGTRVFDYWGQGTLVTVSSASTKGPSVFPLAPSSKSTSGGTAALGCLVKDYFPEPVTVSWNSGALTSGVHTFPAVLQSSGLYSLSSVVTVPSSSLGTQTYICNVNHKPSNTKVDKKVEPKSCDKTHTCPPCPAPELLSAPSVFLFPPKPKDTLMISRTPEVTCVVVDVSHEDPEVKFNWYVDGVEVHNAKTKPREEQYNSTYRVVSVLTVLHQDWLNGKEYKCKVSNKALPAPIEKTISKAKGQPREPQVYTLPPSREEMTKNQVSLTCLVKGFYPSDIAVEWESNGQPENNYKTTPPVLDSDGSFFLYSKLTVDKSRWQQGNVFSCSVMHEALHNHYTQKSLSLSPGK
light: DIVMTQSPATLSLSPGERATLSCRSSKSLQNVNGNTYLYWFQQKPGQSPQLLIYRMSNLNSGVPDRFSGSGSGTEFTLTISSLEPEDFAVYYCMQHLEYPITFGAGTKLEIKRTVAAPSVFIFPPSDEQLKSGTASVVCLLNNFYPREAKVQWKVDNALQSGNSQESVTEQDSKDSTYSLSSTLTLSKADYEKHKVYACEVTHQGLSSPVTKSFNRGEC
notes: as for B1
On to B2, for which, in the assay with mFcγRIIb [9], the binding result is “no binding”. For the same molecule, the binding result in the assay with cynoFcγRIIb [10] is listed as “no binding”. In assay [1], the “Fold vs WT IgG1” value came to 0.0797 fold and the Kd was 18400 nM.

B3: V266M/S267E (antibody, human IgG1, kappa)
heavy: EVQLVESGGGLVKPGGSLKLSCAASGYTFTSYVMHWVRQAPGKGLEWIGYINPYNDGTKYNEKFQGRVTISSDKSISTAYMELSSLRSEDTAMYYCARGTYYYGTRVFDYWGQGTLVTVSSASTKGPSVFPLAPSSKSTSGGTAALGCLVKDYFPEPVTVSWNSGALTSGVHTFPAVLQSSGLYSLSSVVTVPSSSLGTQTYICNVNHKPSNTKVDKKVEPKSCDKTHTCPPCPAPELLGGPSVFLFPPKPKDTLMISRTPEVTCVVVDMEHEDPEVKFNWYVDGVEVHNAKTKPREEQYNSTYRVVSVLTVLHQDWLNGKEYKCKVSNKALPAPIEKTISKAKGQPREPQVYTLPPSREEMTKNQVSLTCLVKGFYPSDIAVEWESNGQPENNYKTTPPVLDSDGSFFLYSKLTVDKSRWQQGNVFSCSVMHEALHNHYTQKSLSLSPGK
light: DIVMTQSPATLSLSPGERATLSCRSSKSLQNVNGNTYLYWFQQKPGQSPQLLIYRMSNLNSGVPDRFSGSGSGTEFTLTISSLEPEDFAVYYCMQHLEYPITFGAGTKLEIKRTVAAPSVFIFPPSDEQLKSGTASVVCLLNNFYPREAKVQWKVDNALQSGNSQESVTEQDSKDSTYSLSSTLTLSKADYEKHKVYACEVTHQGLSSPVTKSFNRGEC
notes: as for B1
As to B3, the “Fold vs WT IgG1” value in assay [1] is 29.2 fold; in assay [2], 30.7 fold; in [3] it was 1.98 fold; in [4], 0.0448 fold; in [5] it was 10.9 fold. For the same molecule, the Kd amounted to 50.2 nM in assay [1]; 28 nM in assay [2]; 0.166 nM in assay [3]; 4270 nM in [4]; 59.2 nM in assay [5]. The “EC50 (read off the curve)” value in [8] was about 10 ng/mL.

B4: A327L (antibody, human IgG1, kappa)
heavy: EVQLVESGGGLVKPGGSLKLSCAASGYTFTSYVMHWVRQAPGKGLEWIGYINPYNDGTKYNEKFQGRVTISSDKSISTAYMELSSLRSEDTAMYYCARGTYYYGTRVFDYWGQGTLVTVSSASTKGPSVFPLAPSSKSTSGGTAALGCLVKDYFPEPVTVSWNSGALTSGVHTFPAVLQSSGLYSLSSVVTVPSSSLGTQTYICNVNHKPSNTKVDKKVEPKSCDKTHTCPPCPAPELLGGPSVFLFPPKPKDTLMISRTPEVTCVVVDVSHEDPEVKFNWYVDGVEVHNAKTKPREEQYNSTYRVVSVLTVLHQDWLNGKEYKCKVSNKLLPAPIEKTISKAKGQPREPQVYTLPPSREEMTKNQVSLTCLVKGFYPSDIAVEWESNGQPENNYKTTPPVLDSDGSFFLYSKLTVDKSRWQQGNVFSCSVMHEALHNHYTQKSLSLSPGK
light: DIVMTQSPATLSLSPGERATLSCRSSKSLQNVNGNTYLYWFQQKPGQSPQLLIYRMSNLNSGVPDRFSGSGSGTEFTLTISSLEPEDFAVYYCMQHLEYPITFGAGTKLEIKRTVAAPSVFIFPPSDEQLKSGTASVVCLLNNFYPREAKVQWKVDNALQSGNSQESVTEQDSKDSTYSLSSTLTLSKADYEKHKVYACEVTHQGLSSPVTKSFNRGEC
notes: HuAM4G7 anti-CD19 IgG1 (m1) with this Fc substitution, EU index; copies: 2 + 2
For the molecule B4, the binding result (with mFcγRIIb [9]; in the assay with cynoFcγRIIb [10]; in assay [1]) was “no binding” each time.

B5: anti-CD19 antibody HuAM4G7 IgG1 S267E/H268E (antibody)
heavy: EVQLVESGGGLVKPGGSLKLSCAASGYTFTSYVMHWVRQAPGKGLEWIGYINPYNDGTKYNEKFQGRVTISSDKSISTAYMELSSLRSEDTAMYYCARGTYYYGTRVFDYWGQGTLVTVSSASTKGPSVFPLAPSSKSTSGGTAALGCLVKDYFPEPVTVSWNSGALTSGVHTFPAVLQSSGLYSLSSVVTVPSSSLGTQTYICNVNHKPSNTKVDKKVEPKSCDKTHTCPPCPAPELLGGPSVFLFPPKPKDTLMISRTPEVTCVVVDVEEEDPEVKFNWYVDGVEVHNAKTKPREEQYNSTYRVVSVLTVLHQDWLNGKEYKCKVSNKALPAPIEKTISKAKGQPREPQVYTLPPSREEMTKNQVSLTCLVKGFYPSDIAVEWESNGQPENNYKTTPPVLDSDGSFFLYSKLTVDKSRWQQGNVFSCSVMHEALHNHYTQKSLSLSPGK
light: DIVMTQSPATLSLSPGERATLSCRSSKSLQNVNGNTYLYWFQQKPGQSPQLLIYRMSNLNSGVPDRFSGSGSGTEFTLTISSLEPEDFAVYYCMQHLEYPITFGAGTKLEIKRTVAAPSVFIFPPSDEQLKSGTASVVCLLNNFYPREAKVQWKVDNALQSGNSQESVTEQDSKDSTYSLSSTLTLSKADYEKHKVYACEVTHQGLSSPVTKSFNRGEC
notes: Positions in EU numbering; copies: 2 + 2
Consider B5, for which the “Fold vs WT IgG1” value is 40.6 fold in assay [1]; 41.7 fold in assay [2]; 3.52 fold in assay [3]; 3.15 fold in [4]; 0.765 fold in assay [5]. For the same molecule, the Kd was 36.1 nM in [1]; 20.6 nM in assay [2]; 0.0935 nM in assay [3]; 60.8 nM in assay [4]; 845 nM in assay [5]. In addition, the “EC50 (read off the curve)” value in [8] was about 10 ng/mL.

B6: G236A/G237A (antibody, human IgG1, kappa)
heavy: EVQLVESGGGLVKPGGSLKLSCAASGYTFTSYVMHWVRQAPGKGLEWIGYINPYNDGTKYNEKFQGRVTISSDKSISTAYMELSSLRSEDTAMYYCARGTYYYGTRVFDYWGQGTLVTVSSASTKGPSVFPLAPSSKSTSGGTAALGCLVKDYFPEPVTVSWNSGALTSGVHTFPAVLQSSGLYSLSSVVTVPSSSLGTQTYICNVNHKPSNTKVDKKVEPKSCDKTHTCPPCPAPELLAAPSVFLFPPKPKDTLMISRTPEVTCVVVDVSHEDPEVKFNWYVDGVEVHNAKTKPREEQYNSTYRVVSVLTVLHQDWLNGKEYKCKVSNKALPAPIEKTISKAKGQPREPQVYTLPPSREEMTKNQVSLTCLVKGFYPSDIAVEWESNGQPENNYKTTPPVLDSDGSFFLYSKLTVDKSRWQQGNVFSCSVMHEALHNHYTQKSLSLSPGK
light: DIVMTQSPATLSLSPGERATLSCRSSKSLQNVNGNTYLYWFQQKPGQSPQLLIYRMSNLNSGVPDRFSGSGSGTEFTLTISSLEPEDFAVYYCMQHLEYPITFGAGTKLEIKRTVAAPSVFIFPPSDEQLKSGTASVVCLLNNFYPREAKVQWKVDNALQSGNSQESVTEQDSKDSTYSLSSTLTLSKADYEKHKVYACEVTHQGLSSPVTKSFNRGEC
notes: as for B1
Take B6: in the assay with mFcγRIIb [9], the binding result is given as “no binding”. Further, in the assay with cynoFcγRIIb [10], the binding result was “no binding”. In [1], the “Fold vs WT IgG1” value came out at 0.0578 fold and the Kd was found to be 25400 nM.
